# Measurements reported in the DeepSol protein solubility set.
# Test: soluble on expression in E. coli; label from the status in PepcDB or PDB records
row,Sequence,soluble on expression in E. coli
1,MGHHHHHHSHKVYWGVAWDRSDVAVKIYLSFTSDFRKSIRKYIVGDPRFEDIPAGNIRRLIYEWARKEYRNLRRMRESGVRVPRPVAVEANIIVMEFLGEKGYRAPTLAEAVEELDRGEAEAIAAEVLRQAEAIVCRARLVHADLSEYNILVWRGEPWIIDVSQAVPHSHPNAEEFLERDVENLHRFLTGKMGFEFDFDAYLSRLKS,not soluble
2,STMPLAELGARLYREKACFSCHSIDGSRLVGPSFKGLYGSTRTFEDGTTAVADENYLRESILQPGAKVVQGYPNVMPASYASLSEREVAALIEFIKQQQ,soluble
3,MGAIQFQTAPKLPVTVLLAAKNEAVNLPRCLAALGPAERVIVLDSHSTDATAEIARQHGAEVAQFDYRGGYPKKRQWALDTIPFGTPWILLLDADEVVPEDLWKEIGNVTRQPDADAYLITKGFHFLGRKFKHGGFSHSAVLLFKTGMARFEKLFDDDLNGLDMEIHERVVVDGRIGKLKTPLVHEDFKGLEAYITRHNKYSTWEAKVRHHYLTTGRYGEQTIKPRLFGNSQERRRFLKALIIRLPFEPQIWFIYHYLLRLGFLEGRPGLIASQIRAAYIAQARAKIYELRLNTPSRLEHHHHHH,not soluble
4,RGIAVYVEHHNGNIHPVTYELIGKAREMASKIKQPVYCVFVGKDIKDKCSNLISYGVDEVFVYDEDEFKDFRIEPYSKAIENFIDKIKPTIVLVGGTTLGRSLAPRLAARFRTGLTADCTILDIQSNTDLDQIRPAFGGNIMAHINTPNNRPQFATVRYKIFSAPEKIENTTGKITLCKVEKKELKSKIKVLS,not soluble
5,MAHHHHHHMAITLPKLKYALNALSPHISEETLSFHYNKHHAGYVNKLNGLIKDTPLANKSLTDILKESTGAIFNNAAQIWNHSFYWDSMGPNCGGEPHGEIKEKIQEDFGSFNNFKDQFSNVLCGHFGSGWGWLALNKNNKLVILQTHDAGNPIKENTGIPILTCDVWEHAYYIDYRNDRLSYVKAWWNLVNWNFANENLKNALNK,soluble
6,MLNKLMWLTGKAQEDWIEKILHLRQKIWPDYQRIKNDTLFKLYSHYPLYQWLSHYNGEVVAVINSLPVALDQSLDNLPQEGLNWVLSHLESTTPLTQSNYLAAVSVTVNPAYQRLGLSKLLLNRLKASAQEAQYKALIVPARPSQKENY,not soluble
7,MIRGEYLLRELNQNILLQSCQEFVKDYLDTICSFYLGKEVWYRFTELTNTEANCLVGTKEFFDEGHPLFGYRGTRRLLACLDEFQAEAHVVTEVYQTNPNLSVIFPFVNDADQLKQAITVLRQQGFTGKVGTMIELPSAYFDLSSILETGISKIVVGMNDLTSFVFATMRNSQWHDMESPIMLDMLRDMQDKARKNKIDFAVAGYLNTSFIQKMNQLGIKCIIHYSSIPEIFDLEIDHPDHLKHIKEESKKLQRSTHDTARNVE,soluble
8,MGSDKIHHHHHHMGVFLDKSIKEVVDELNGRYFLPDIQREYVWLQNADGKKIEQLFDSILRGYPIGFFLFWKLPKEDIAKSDEQDSDKLNFQLYQFITNYDERKPHNEKIRIEQIKRDDLYIVLDGQQRLTSLYIGLKGTRTLKKKNARYDNPNAYEEKRLYLNLKHQPNMDNPEDNYEFEFHAQKPENDKKHWWFKVGDILESESHVWNYADEHGLKGNELKLLGDLHRAFHTKQLVSFFEETEKNLNKVLNIFIRVNSGGVKLSYSDLLMSILTASFSSDIREKMNELVDALKDKGFSNMG,not soluble
9,ISRLLAGQLDFRSAIRSVAAEVAHIIPHDHLDVCVLLEDGNYHTAYETGIETAWGDLAGAPVVNSPIRSLLWGEVDFLLADDAMTDPRFHFDGAFKRPIVEQSLRSRLHVPMKVQGAIIAALSCSSQEAGAYTMEDVERARIIADLLTPYFFALRAAEQAQR,not soluble
10,MSLFHREDFSKALLKKALQPGMRVMDIGCGSGELTRLAADIVGKEGDVVGIDINEQLLWQARHDNGYANVSYQNADLAALSSFETKSFDAIIGRRVLMYQKDPKKVIESLTPLLKPNGFYVFQESDAMCLELAKPSFVNMNKIQSLIWQTVEKEGGHIHIGSQLEQLMLEAGLIVDHFVSENVIQTSQTGTDLSWLLNIMKERIQKYSDLQGLEDVNLQKELEENNDHFIRDCQFGIISHRVDEGHHHHHH,soluble
11,MADLRKAARGRECQVRIPGVCNGNPETSVLAHIRLTGLCGTGTKPPDLIATIACSACHDEIDRRTHFVDAGYAKECALEGMARTQVIWLKEGVIKA,soluble
12,MGSDKIHHHHHHMEREKVELFKEVLKKLHKGEDVESLKKQFGELLSQIPPFEIPVIEQELLKSGEIDVRDIIKMCDLHVEFFRGAVSEAGREIEKLPNGHPLRTLYEENKQILKDAEALSLLASSMFSLPKDDPRRKQFYEKLVQHVSELHRIGLTHYTREEMLIFPYIERRGITAVPTVLWSKHDETRLKIRLLLNLLKKEESDERLKEEALELSRMLSDMVFRENNILYPTLKVLLTEGEWKAIKMLEKDIGYYKIEVTEEWETPEKPLLPHRNCLRRPIPFRGLGGSRHVYHLQIQ,not soluble
13,MAHHHHHHMSTTNPTGETTEWDDLQRKYGNLPPLQKEVKEEEIYLNKLEKLEGVNPLEKKNLHELTLLEENCVDEDYLKIIEKHKANRIKEINRSRALDVFGTVYEISKDNFLTEVNEASKRNPLGEHGGRSMESTRGDEDLEEDEEQGVAASSTEGTEGTHVVIHLYSDNVLACKVINSILIQMARKHKYVKFTKGVYNRIVENYPESKLPTLLIYYNGTCIHQICNLLNNIKGGMNNLSLKTFERLMEKYNILRYPSSWMNSRQSVSDHSVNSSDVDSEEGSRYAEKGTRVRTHKQYTSFNMFDSKYTSRDYSSDEDRELKSRGYASSMLDKKVSRNEL,not soluble
14,MAHHHHHHMFSLSDTQLGISPMRQFSPSLFRQNKVAEKYRATQGTGIGPQYHQLSDGRLVRPGTSHTKLLPMLEPGETVDWEKLPSYYHWYPKEELHDYIENTTWREIKGRPTGEPLEKRLRKAITGGTFEKDEAPAPDLMPWNSATIPITKFPHERNDEEIIVVDPKTGRIIGMERETYERWKRMMEERRAGLPESDPVEYDQERYVTNKDGVVFDLSKMKYRPIFEGRWNPRRQQSTGRTNPIMT,soluble
15,AHHHHHHGSAQLAGQPILILPEGTQRYVGRDAQRMNILAARIVAETIRTTLGPKGMDKMLVDSLGDIVITNDGATILDEMDIQHPAAKMMVEVAKTQDKEAGDGTTTAVVIAGELLRKAEELLDQNIHPSIIIKGYTLAAQKAQEILENIAKEVKPDDEEILLKAAMTSITGKAAEEEREYLAKLAVEAVKLVAEKEDGKYKVDIDNIKLEKKEGGSVRDTQLIRGVVIDKEVVHPGMPKRVEKAKIALINDALEVKETETDAEIRITSPEQLQAFLEQEERMLREMVEKIKEVGANVVFVQKGIDDLAQHYLAKYGIMAVRRVKKSDMEKLAKATGAKIVTNIRDLTPEDLGYAELVEERKVAGESMIFVEGCQNPKAVTILIRGGTEHVVDEVERALEDAIKVVKDILEDGKILAGGGAPEIELAIRLDEYAKEVGGKEQLAIEAFAEALKVIPRTLAENAGLDPIETLVKVIAAHKEKGPTIGVDVYEGEPADMLERGVIEPLRVKKQAIKSASEAAIMILRIDDVIAASKLEKEKEKEGEKGGGSEDFSSDLD,not soluble
16,LKPKILTASRKIKIKAGFTHNLEVDFIGAPDPTATWTVGDSGAALAPELLVDAKSSTTSIFFPSAKRADSGNYKLKVKNELGEDEAIFEVIVQ,soluble
17,MAHHHHHHGICSSAPTLGEIWKRKLNQLDAKEFMAYRRRFVVEVDRNEAREALAKGKTNTGHAVSRGTAKLAWIDERGGVELKGTVVDLGCGRGSWSYYAASQPNVREVKAYTLGTSGHEKPRLVETFGWNLITFKSKVDVTKMEPFQADTVLCDIGESNPTAAVEASRTLTVLNVISRWLEYNQGCGFCVKVLNPYSCDVLEALMKMQARFGGGLIRVPLSRNSTHEMYFVSGIKNNIMGNVTAVSRQLLKRMEEQGGERVVPDYKFSTGTRSNL,soluble
18,MSYSPSLKEIIAILQKYTSKNYQSNCKTRPDGKLELSLNGVFEEIVKTPGKTRYVTHKQLDQKLKDFKQDLMVELHDTFATKTDLKESEARINQKLEALIQIVMVQGEQIKVHGEQINKLTQAVEKQGEKIEAQGQQIQKVNETLNFVVESLGSIHKRLDSMEGRLDSMENRLDKLESKLEHHHHHH,not soluble
19,AAVEDNHLLIKAVQNEDVDLVQQLLEGGANVNFQEEEGGWTPLHNAVQMSREDIVELLLRHGADPVLRKKNGATPFLLAAIAGSVKLLKLFLSKGADVNECDFYGFTAFMEAAVYGKVKALKFLYKRGANVNLRRKTKEDQERLRKGGATALMDAAEKGHVEVLKILLDEMGADVNACDNMGRNALIHALLSSDDSDVEAITHLLLDHGADVNVRGERGKTPLILAVEKKHLGLVQRLLEQEHIEINDTDSDGKTALLLAVELKLKKIAELLCKRGASTDCGDLV,soluble
20,NEVRFVVFHAVDTSEKQILVRSLEEAENKFAKLTQLLPDGLLLIEDDTIISANPASARLLGLNSPHELLGEELSRLFIDENTKKVFSHRLSTLISDKPFVCLTSARCGFERKVQLHADSTAILGSESQIILIQDA,not soluble
21,MYATSTQKREWTYTPEKLAAMRLEINIKFRQKYESVMQPDELELFVTPEEELRMQRSIEDAALKFADKFRPHIWPSVKWTALAFFKRAFLVWVPSDTSIRMVMMACFYLAMKIDEFYITIEDFVKNMNVGEPRQNAERILKLEPELMKILDYNLTVHCPYRPYEGHLMDMKTRMLLLNFDLESIRRDSMRFFQNALQTDVLLLYPPSQIALAAINFGLHAQGKSDEILREFLRKLIGIEEDSWAHRDARPEDLEKLEKTVTRVNQIMREVDRNFVAVTEQERENHKSQLARIQALIPALDERRKEQWLAGGGVGLMPGELAEQPVDSDDEIN,not soluble
22,MPVITILGCRMFEDEIMHLLENDPEIEEVLVVENEDCVGIMKKMAEAGLAYTALSPEKIPEKSSETGKGLTLIVYMLELALHAIPENLKKTVYSKVELMSSCSDGILLFYGLCGNVLGKIEEDFKDLGCQVCILKEENGEIVDDCIGAVLGGRKQYLEVLKSCRGVGTFFLTPMWAVNWREMIRTSGLSQNPDDISMSKFVFDYAGYKRVARLDTGLAYEKDFDACVKEFSTLFEFEVTELEGTLHLIENCYAKTKASVFEACPRSQALEHHHHHH,soluble
23,MTADSCNPCLTLENTIDVQEVPMTKSVVLADPRGFCAGVDRAILTVQTILKAAEASGKRTREDGLPPVYVRRQIVHNKHVVEDLAGQGAVFVQELAEIPDAAAQAGIPVVFSAHGVSPVVKAEAERRGMHVVDATCPLVGKVHREVLRFVREGYEIVYIGHKGHDEAVGVVGESPEHVHLIEHESDVDSLDFAPDTKLVLLSQTTLSVDETADTIAALKAKFPWIQEPPSSDICYATSNRQAAVKLVAQQSDCVVIVGSANSSNSVRLMEVAQEGLGERGKAYRVDDASELDPAWFEGLESVGISSGASVPDELVSGVIDALQNLGFTGMKSVETIKENMHFVLPAELRRKKLEHHHHHH,soluble
24,MMFNNNNWKLSVTDINLYENTVSLDGQPYPLSLAIKTLIPGYLSGLPSTSREAMELLEALAEAGVTIGNFFSNDLMTAYGRRQMNKRAEAERIAKEQRLQAERMREENMTDAEWQKELQRREQVKAERRTYGESLRSATHSAGRSRAAIVADLESGGNWMDSL,not soluble
25,MYRNFFSLSELPFSISPDPKYLFMSERHREALTHLTYGLGEVGGFALLTGEVGTGKTTISRCLMEQLPQNTQAAFILNPTLSCQELLATLCDQLKIRYRKTGASLKTLTDKISEKLLKNHENDINTLLIIDEAQHLQPEVLEQLRLLTNLETNTKKLLQVILIGQPELQQLLQRRDLRQL,not soluble
26,GVTKEIRIPTLEECDVCHGSGAKPGTQPQTCPTCHGSGQVQMRQGFFAVQQTCPHCQGRGTLIKDPCNKCHGHGRVERS,soluble
